Assay [1] has as its target SAS-6 (UniProt Q6UVJ0). In words: GFP-Trap co-IP, SAS-6 blot. To be noted: reference: wild type; sites S325.
Assay [2] deals with SAS-6 (UniProt Q6UVJ0). In words: GFP-Trap co-IP, SAS-6 blot. To be noted: reference: wild type; sites S325. The source holds these as a separate data set.
The target in another assay is Strep-NEDD1 (human, UniProt Q8NHV4 1-660). As to the kind of experiment: pull-down.
Sequence of Strep-NEDD1 (Q8NHV4 whole entry): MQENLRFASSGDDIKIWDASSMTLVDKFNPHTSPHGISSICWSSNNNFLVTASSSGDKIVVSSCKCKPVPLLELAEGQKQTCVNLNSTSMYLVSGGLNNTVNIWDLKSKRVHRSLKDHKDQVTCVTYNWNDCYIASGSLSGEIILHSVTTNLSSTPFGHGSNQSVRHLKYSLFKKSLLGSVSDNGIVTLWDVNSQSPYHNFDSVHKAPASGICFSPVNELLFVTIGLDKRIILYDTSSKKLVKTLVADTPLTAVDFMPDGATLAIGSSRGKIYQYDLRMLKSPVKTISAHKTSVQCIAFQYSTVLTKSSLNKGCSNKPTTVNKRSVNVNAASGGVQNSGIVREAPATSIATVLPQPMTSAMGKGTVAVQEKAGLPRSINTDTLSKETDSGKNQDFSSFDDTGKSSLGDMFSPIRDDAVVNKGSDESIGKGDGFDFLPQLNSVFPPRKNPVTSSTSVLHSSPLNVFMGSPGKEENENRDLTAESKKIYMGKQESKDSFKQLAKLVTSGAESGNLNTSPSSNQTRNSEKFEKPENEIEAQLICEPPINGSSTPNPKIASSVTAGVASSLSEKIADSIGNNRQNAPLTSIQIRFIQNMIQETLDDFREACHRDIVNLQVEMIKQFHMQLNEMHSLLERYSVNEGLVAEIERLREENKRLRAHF

Turning to NEDD1 (from UniProt Q8NHV4) S325A, the “binding against the reference” value in the assay with SAS-6 [1] and in the assay with SAS-6 [2] was “weaker” in each case.

B1: GFP-SAS-6-Strep (natural protein)
chain: MSQVLFHQLVPLQVKCKDCEERRVSIRMSIELQSVSNPVHRKDLVIRLTDDTDPFFLYNLVISEEDFQSLKFQQGLLVDFLAFPQKFIDLLQQCTQEHAKEIPRFLLQLVSPAAILDNSPAFLNVVETNPFKHLTHLSLKLLPGNDVEIKKFLAGCLKCSKEEKLSLMQSLDDATKQLDFTRKTLAEKKQELDKLRNEWASHTAALTNKHSQELTNEKEKALQAQVQYQQQHEQQKKDLEILHQQNIHQLQNRLSELEAANKDLTERKYKGDSTIRELKAKLSGVEEELQRTKQEVLSLRRENSTLDVECHEKEKHVNQLQTKVAVLEQEIKDKDQLVLRTKEAFDTIQEQKVVLEENGEKNQVQLGKLEATIKSLSAELLKANEIIKKLQGDLKTLMGKLKLKNTVTIQQEKLLAEKEEKLQKEQKELQDVGQSLRIKEQEVCKLQEQLEATVKKLEESKQLLKNNEKLITWLNKELNENQLVRKQDVLGPSTTPPAHSSSNTIRSGISPNLNVVDGRLTYPTCGIGYPVSSAFAFQNTFPHSISAKNTSHPGSGTKVQFNLQFTKPNASLGDVQSGATISMPCSTDKENGENVGLESKYLKKREDSIPLRGLSQNLFSNSDHQRDGTLGALHTSSKPTALPSASSAYFPGQLPNS
For B1, the binding result in the assay with Strep-NEDD1 is “binds”.

The values above are taken from PMC7759300 (The Journal of Cell Biology, 2020).
